Data on 31 substances can be found in patent US20210094999A1.

For experiment [1], the target named is insulin receptor-A on CHO-hIR cells (human) (UniProt P06213). Description: cell-based or functional assay.
Experiment [2] concerns the target solubilised human insulin receptor isoform A (IR-A) (human) (UniProt P06213). Description: competition SPA on solubilised human IR-A against [125I-TyrA14]-human insulin; affinity relative to human insulin.

With “N{Epsilon-B28}-[2-[2-[2-[[(4S)-4-carboxy-4-(17-carboxyheptadecanoylamino)butanoyl]amino]ethoxy]ethoxy]acetyl]-[TyrB5,AlaB26,LysB28],des-(B29-B30)-Insulin (ligand; Lys B28: N-epsilon acylated with C18 diacid-gGlu-OEG)”, in experiment [1], the % maxERK/% maxAKT is 0.2 and the Elisa hIR pY1158 max (% of human insulin) (% of human insulin) was determined as 6.

For Insulin lispro (ligand), in experiment [1], the Elisa hIR pY1158 max (% of human insulin) (% of human insulin) turned out to be 104.

Turning to “N{Epsilon-B28}-[(4S)-4-carboxy-4-(15-carboxypentadecanoylamino)butanoyl]-[TyrB5,LysB28],des-(B29-B30)-Insulin (ligand; Lys B28: N-epsilon acylated with C16 diacid-gGlu)”, in experiment [1], the % maxERK/% maxAKT turned out to be 0.47 and the Elisa hIR pY1158 max (% of human insulin) (% of human insulin) is 43.

For “N{Epsilon-B26}-[2-[2-[2-[[2-[2-[2-[[(4S)-4-carboxy-4-(17-carboxyheptadecanoylamino)butanoyl]amino]ethoxy]ethoxy]acetyl]amino]ethoxy]ethoxy]acetyl]-[TyrB5,LysB26],des-(B27-B30)-Insulin (ligand; Lys B26: N-epsilon acylated with C18 diacid-gGlu-2xOEG)”, in experiment [1], the % maxERK/% maxAKT amounted to 0.41 and the Elisa hIR pY1158 max (% of human insulin) (% of human insulin) is 24.

Consider “N{Epsilon-B28}-17-carboxyheptadecanoyl-[PheB5,LysB28],des-(B29-B30)-Insulin (ligand; Lys B28: N-epsilon acylated with C18 diacid, no linker)”, for which, in experiment [1], the % maxERK/% maxAKT was determined as 0.31 and the Elisa hIR pY1158 max (% of human insulin) (% of human insulin) was 10.

For the substance “[TyrB5,GlyB26],des-ThrB30-Insulin (ligand)”, in experiment [1], the % maxERK/% maxAKT worked out at 0.82 and the Elisa hIR pY1158 max (% of human insulin) (% of human insulin) is 93.

In experiment [1], “N{Epsilon-B29}-[(4S)-4-carboxy-4-(15-carboxypentadecanoylamino)butanoyl]-[TyrB5,AlaB26],des-ThrB30-Insulin (ligand; Lys B29: N-epsilon acylated with C16 diacid-gGlu)” had a % maxERK/% maxAKT of 0.3 and an Elisa hIR pY1158 max (% of human insulin) (% of human insulin) of 13.

Regarding “N{Epsilon-B28}-15-carboxypentadecanoyl-[TyrB5,LysB28],des-(B29-B30)-Insulin (ligand; Lys B28: N-epsilon acylated with C16 diacid, no linker)”, in experiment [1], the % maxERK/% maxAKT is 0.38 and the Elisa hIR pY1158 max (% of human insulin) (% of human insulin) worked out at 32.

Take “N{Epsilon-B28}-[(4S)-4-carboxy-4-(17-carboxyheptadecanoylamino)butanoyl]-[TyrB5,LysB28],des-(B29-B30)-Insulin (ligand; Lys B28: N-epsilon acylated with C18 diacid-gGlu)”: in experiment [1], the % maxERK/% maxAKT stood at 0.37 and the Elisa hIR pY1158 max (% of human insulin) (% of human insulin) came to 19.

In experiment [1], “N{Epsilon-B28}-17-carboxyheptadecanoyl-[TyrB5,GlyB26,LysB28],des-(B29-B30)-Insulin (ligand; Lys B28: N-epsilon acylated with C18 diacid, no linker)” displayed a % maxERK/% maxAKT of 0.07 and an Elisa hIR pY1158 max (% of human insulin) (% of human insulin) of 3.

In experiment [1], “N{Epsilon-B29}-tetradecanoyl-[TyrB5],des-ThrB30-Insulin (ligand; Lys B29: N-epsilon acylated with C14 (tetradecanoyl), no linker)” showed a % maxERK/% maxAKT of 0.66 and an Elisa hIR pY1158 max (% of human insulin) (% of human insulin) of 40.

On to “N{Epsilon-B26}-17-carboxyheptadecanoyl-[TyrB5,LysB26],des-(B27-B30)-Insulin (ligand; Lys B26: N-epsilon acylated with C18 diacid, no linker)”, for which the Elisa hIR pY1158 max (% of human insulin) (% of human insulin) in experiment [1] was determined as 2.

As for “N{Epsilon-B28}-[(4R)-4-[(3R,10S,13R,17R)-3-hydroxy-10,13-dimethyl-2,3,4,5,6,7,8,9,11,12,14,15,16,17-tetradecahydro-1H-cyclopenta[a]phenanthren-17-yl]pentanoyl]-[TyrB5,LysB28],des-(B29-B30)-Insulin (ligand; Lys B28: N-epsilon acylated with lithocholic acid, no linker)”, in experiment [1], the % maxERK/% maxAKT was 0.29 and the Elisa hIR pY1158 max (% of human insulin) (% of human insulin) was determined as 14.

In experiment [1], “N{Epsilon-B29}-[(4S)-4-carboxy-4-(15-carboxypentadecanoylamino)butanoyl]-[TyrB5,GlyB26],des-ThrB30-Insulin (ligand; Lys B29: N-epsilon acylated with C16 diacid-gGlu)” displayed a % maxERK/% maxAKT of 0.19 and an Elisa hIR pY1158 max (% of human insulin) (% of human insulin) of 8.

In experiment [1], “N{Epsilon-B28}-[(4S)-4-carboxy-4-[[(4R)-4-[(3R,10S,13R,17R)-3-hydroxy-10,13-dimethyl-2,3,4,5,6,7,8,9,11,12,14,15,16,17-tetradecahydro-1H-cyclopenta[a]phenanthren-17-yl]pentanoyl]amino]butanoyl]-[TyrB5,LysB28],des-(B29-B30)-Insulin (ligand; Lys B28: N-epsilon acylated with lithocholic acid-gGlu)” came in with a % maxERK/% maxAKT of 0.32 and an Elisa hIR pY1158 max (% of human insulin) (% of human insulin) of 25.

In experiment [1], Insulin degludec (ligand) showed a % maxERK/% maxAKT of 0.97 and an Elisa hIR pY1158 max (% of human insulin) (% of human insulin) of 87. The same substance registered a hIR binding IC50 (% of human insulin) (% of human insulin) in experiment [2] of 20.

“N{Epsilon-B26}-[2-[2-[2-[[(4S)-4-carboxy-4-(17-carboxyheptadecanoylamino)butanoyl]amino]ethoxy]ethoxy]acetyl]-[TyrB5,LysB26],des-(B27-B30)-Insulin (ligand; Lys B26: N-epsilon acylated with C18 diacid-gGlu-OEG)”: in experiment [1], the % maxERK/% maxAKT was found to be 0.27 and the Elisa hIR pY1158 max (% of human insulin) (% of human insulin) was 20.

In experiment [1], “N{Epsilon-B28}-17-carboxyheptadecanoyl-[TyrB5,LysB28],des-(B29-B30)-Insulin (ligand; Lys B28: N-epsilon acylated with C18 diacid, no linker)” displayed a % maxERK/% maxAKT of 0.35 and an Elisa hIR pY1158 max (% of human insulin) (% of human insulin) of 17.

Regarding “[TyrB5,AlaB26],des-ThrB30-Insulin (ligand)”, in experiment [1], the % maxERK/% maxAKT turned out to be 0.85 and the Elisa hIR pY1158 max (% of human insulin) (% of human insulin) turned out to be 132.

In experiment [1], “N{Epsilon-B28}-15-carboxypentadecanoyl-[TyrB5,GlyB26,LysB28],des-(B29-B30)-Insulin (ligand; Lys B28: N-epsilon acylated with C16 diacid, no linker)” showed a % maxERK/% maxAKT of 0.27 and an Elisa hIR pY1158 max (% of human insulin) (% of human insulin) of 10.

Take “N{Epsilon-B29}-[(4S)-4-carboxy-4-(17-carboxyheptadecanoylamino)butanoyl]-[TyrB5,AlaB26],des-ThrB30-Insulin (ligand; Lys B29: N-epsilon acylated with C18 diacid-gGlu)”: in experiment [1], the % maxERK/% maxAKT was determined as 0.29 and the Elisa hIR pY1158 max (% of human insulin) (% of human insulin) was 6.

In experiment [1], “N{Epsilon-B28}-[2-[2-[2-[[(4S)-4-carboxy-4-(17-carboxyheptadecanoylamino)butanoyl]amino]ethoxy]ethoxy]acetyl]-[TyrB5,LysB28],des-(B29-B30)-Insulin (ligand; Lys B28: N-epsilon acylated with C18 diacid-gGlu-OEG)” registered a % maxERK/% maxAKT of 0.61 and an Elisa hIR pY1158 max (% of human insulin) (% of human insulin) of 39.

In experiment [1], “[TyrB5,LysB28],des-(B29-B30)-Insulin (ligand)” came in with a % maxERK/% maxAKT of 0.84 and an Elisa hIR pY1158 max (% of human insulin) (% of human insulin) of 93.

In experiment [1], “N{Epsilon-B29}-[(4S)-4-carboxy-4-(17-carboxyheptadecanoylamino)butanoyl]-[TyrB5,GlyB26],des-ThrB30-Insulin (ligand; Lys B29: N-epsilon acylated with C18 diacid-gGlu)” displayed a % maxERK/% maxAKT of 0.36 and an Elisa hIR pY1158 max (% of human insulin) (% of human insulin) of 7.

In experiment [1], “N{Epsilon-B28}-[(4S)-4-carboxy-4-[[(4S)-4-carboxy-4-(17-carboxyheptadecanoylamino)butanoyl]amino]butanoyl]-[TyrB5,LysB28],des-(B29-B30)-Insulin (ligand; Lys B28: N-epsilon acylated with C18 diacid-2xgGlu)” showed a % maxERK/% maxAKT of 0.45 and an Elisa hIR pY1158 max (% of human insulin) (% of human insulin) of 36.

Take “N{Epsilon-B29}-[(4S)-4-carboxy-4-(15-carboxypentadecanoylamino)butanoyl]-[TyrB5],des-ThrB30-Insulin (ligand; Lys B29: N-epsilon acylated with C16 diacid-gGlu)”: in experiment [1], the % maxERK/% maxAKT is 0.84 and the Elisa hIR pY1158 max (% of human insulin) (% of human insulin) turned out to be 58.

For the substance “N{Epsilon-B26}-[(4S)-4-carboxy-4-(17-carboxyheptadecanoylamino)butanoyl]-[TyrB5,LysB26],des-(B27-B30)-Insulin (ligand; Lys B26: N-epsilon acylated with C18 diacid-gGlu)”, in experiment [1], the % maxERK/% maxAKT is 0.33 and the Elisa hIR pY1158 max (% of human insulin) (% of human insulin) turned out to be 6.

In experiment [1], “N{Epsilon-B28}-[2-[2-[2-[[(4S)-4-carboxy-4-(17-carboxyheptadecanoylamino)butanoyl]amino]ethoxy]ethoxy]acetyl]-[TyrB5,GlyB26,LysB28],des-(B29-B30)-Insulin (ligand; Lys B28: N-epsilon acylated with C18 diacid-gGlu-OEG)” came in with a % maxERK/% maxAKT of 0.34 and an Elisa hIR pY1158 max (% of human insulin) (% of human insulin) of 7.

Take Insulin glargine (ligand): in experiment [1], the % maxERK/% maxAKT stood at 0.85 and the Elisa hIR pY1158 max (% of human insulin) (% of human insulin) is 104. For the same substance, the hIR binding IC50 (% of human insulin) (% of human insulin) in experiment [2] was 79.

With “N{Epsilon-B28}-[2-[2-[2-(17-carboxyheptadecanoylamino)ethoxy]ethoxy]acetyl]-[TyrB5,LysB28],des-(B29-B30)-Insulin (ligand; Lys B28: N-epsilon acylated with C18 diacid-OEG)”, in experiment [1], the % maxERK/% maxAKT is 0.48 and the Elisa hIR pY1158 max (% of human insulin) (% of human insulin) was 31.

For the substance Insulin aspart (ligand), in experiment [1], the % maxERK/% maxAKT worked out at 0.79 and the Elisa hIR pY1158 max (% of human insulin) (% of human insulin) turned out to be 95.
